# In the RNAGym collection of RNA variant scans (doi:10.1073/pnas.2313332121):
# This sample holds only a part of the variants without activity.
# B1: TPR 5TU (parent)
# chain: GGAUCUUCUCGAUCUAACAAAAAAGACAAAUCUGCCACAAAGCUUGAGAGCAUCUUCGGAUGCAGAGGCGGCAGCCUUCGGUGGCGCGAUAGCGCCAACGUUCUCAACUAUGACACGCAAAACGCGUGCUCCGUUGAAUGGAGUUUAUCAUG
# Variants of: B1
# Assay: polymerase ribozyme fitness, log enrichment relative to wild type (log ratio); higher = more active; in vitro selection for triplet polymerase activity
# In short: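 Streptavidin-bead capture of gel-excised extended constructs, followed by RT-PCR, closed a single triplicate in vitro selection round. That round began by annealing PCR-built, transcribed mutant libraries of each subunit of a heterodimeric triplet polymerase ribozyme with a biotinylated primer, the partner subunit and triplets, then incubating them frozen at −7 °C. After Illumina sequencing of inputs and outputs, genotypes needed ≥10 input reads and ≥1 read per output. Fitness is the base-2 logarithm of genotype enrichment over wild-type enrichment, using inverse-variance-weighted replicate averages.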
row,Variant,polymerase ribozyme fitness (log ratio)
1,C69A G84A A89G U146C,-2.59
2,A66U G88A U145G U148C A150C,≤ -4.2
3,A66U C96A U111A A122G A138C,≤ -4.2
4,C69A G84A,-2.31
5,G67A U78G G86U C99U G141A,≤ -4.2
6,G67C G92A C96U C118U,≤ -4.2
7,G68U C85G,≤ -4.2
8,C69A C72U,-3.05
9,G68A G80A G86U U90G A91G G136A A142G,≤ -4.2
10,G68A C76A G86A U102C G124C G152A,≤ -4.2
11,C69A G83C,-3.07
12,G67C,-3.97
13,G67U,-2.55
14,G67A,-3.22
15,G67C G94A U139A A142U,≤ -4.2
16,A66G C105U,-3.63
17,G70C G126U G152A,-3.99
18,A66U G68C C105A,≤ -4.2
19,G68A A91C A120G A147C,≤ -4.2
20,C69U A119U,-1.57
21,C69G C85U A91G C118A C129G U144A,≤ -4.2
22,C69U A73G G83C,-3.38
23,A66C G70A G71A G100U G143A U148G,≤ -4.2
24,G67C G83A,≤ -4.2

row,Variant,polymerase ribozyme fitness (log ratio)
1,A64U C87U G100C U135G A150G,≤ -4.2
2,G71A C87A G92C,-3.04
3,A66G C69A G84U A138U,≤ -4.2
4,A66C G71A A73G G83C U151A,≤ -4.2
5,G67A G81A A91C A137C U148C,≤ -4.2
6,C69G C85U G86A,-3.62
7,G70A C79A C87G C99U C105U A142G,≤ -4.2
8,A66G C93U C108U C132G C149A,≤ -4.2
9,G67A C72A A142U,≤ -4.2
10,G65C G71U,≤ -4.2
11,C69U C72U,-1.99
12,G70A U101C C103G C123U,≤ -4.2
13,G65U A66C U77A A147C,≤ -4.2
14,A66G G81U C87G C99U U104G U134A A142U,≤ -4.2
15,C69G A73C U77C G84A C118U C131A U139G,≤ -4.2
16,G68A A122G G133C,≤ -4.2
17,G67C C76U C96U C149U,≤ -4.2
18,C69A C76U A98U C125U,-1.9
19,G68U G128U,≤ -4.2
20,A64U G92A G117C U145A,≤ -4.2
21,A66U C75G U82G A106C C116U,≤ -4.2
22,A64U G92A C95A U101C C105U C123A G124C U145G U148G,≤ -4.2
23,A66G C123G,≤ -4.2
24,C69A U139C G140A U148A,≤ -4.2

row,Variant,polymerase ribozyme fitness (log ratio)
1,G70A A91U C123U A138C C149U,≤ -4.2
2,G68U A73G C76U A91U A98G C99A G112U,≤ -4.2
3,C69U C96G C125U,-1.78
4,C69A C79A A115U C118A,≤ -4.2
5,G67A C96A,-3.46
6,A66U,-3.46
7,A66G,-2.32
8,A66C,-4.16
9,G70C C75A U109G A137C,≤ -4.2
10,G71A C76G U82A G83C C131A,≤ -4.2
11,C69A G71U C85G C103U G117C,-3.28
12,G70C A142C,-3.72
13,G70U G136A,-1.86
14,A66G G92C C95A C103U C108G U151C,≤ -4.2
15,G71A C87G C93A C95G,≤ -4.2
16,G68U U101C,-4.07
17,C69A A91C A122U A142C,≤ -4.2
18,G67C G80C G92A C103A C118G G133A,≤ -4.2
19,G70A C93U G141C,≤ -4.2
20,C69A G117A,-0.631
21,G70C C87G C96G A107G U146G,≤ -4.2
22,G68U C99U G117C G143A,≤ -4.2
23,G70A C87U C96A C118G A147C,≤ -4.2
24,A66G G83U,-3.62

row,Variant,polymerase ribozyme fitness (log ratio)
1,C69U G86C,≤ -4.2
2,C69G U101G G133U,-3.95
3,G67U U102G,≤ -4.2
4,C69A U144C,-1.07
5,G65A C85A,-2.26
6,A66G G100C A107C C114U A122C G133C,≤ -4.2
7,G70A G74A U101G U104C A147U,≤ -4.2
8,G68A A91G G128A,≤ -4.2
9,G68A G74C G88A,≤ -4.2
10,G67C G84A U139A G140U,≤ -4.2
11,A66C G71C G84U,≤ -4.2
12,G67A C87U A107U C125G G126C,-4.14
13,G67C C93G C99G A137U U146A,≤ -4.2
14,C69U A106C,-2.21
15,C69A C76A U109C,≤ -4.2
16,G68A A106C A120G A138C,≤ -4.2
17,G65C C132G,≤ -4.2
18,A64U C69U,≤ -4.2
19,C69U G84U G133C,-3.62
20,C69G G126U C131A,≤ -4.2
21,G70C C103G A120G U127C U134C,≤ -4.2
22,A66C A91C,≤ -4.2
23,A66G G68C U102A,≤ -4.2
24,A66C G92C C114U,≤ -4.2

row,Variant,polymerase ribozyme fitness (log ratio)
1,G68U C95U C96U A113C G124U,≤ -4.2
2,G65A C75A G81U G94A C105U G140U,-3.7
3,G67U A89C C96G A106C A119C,≤ -4.2
4,C69G C93G,-3.97
5,C69G C93A,≤ -4.2
6,G70U G80U A119G,≤ -4.2
7,G67C G86C C96A G112U A113U G126U,≤ -4.2
8,C69G C87A A91C G126A,≤ -4.2
9,A66G C76U C85A C96U,≤ -4.2
10,C69G C72U U134A,≤ -4.2
11,G67C A73U A91G G136A A137G,≤ -4.2
12,G68C A89G A120G A147U U148G,≤ -4.2
13,C69U C85G G141A,-2.66
14,C69G C103A U144G,-1.57
15,G65A G71U C85A,≤ -4.2
16,C69A A73C G86A A119C U145A,≤ -4.2
17,A66G A89U C93U C95G,≤ -4.2
18,C69A G83A A121C,-1.84
19,G65C G88U A106U G140C,≤ -4.2
20,G68A G86A C87G,≤ -4.2
21,G68A C93U A98U G117U,≤ -4.2
22,G68C C93G C131A,≤ -4.2
23,C69G U77C C87U G140U,≤ -4.2
24,G70A G86U,-3.77

row,Variant,polymerase ribozyme fitness (log ratio)
1,G70U A122C U144G,-2.06
2,A66G C96A A98G G136U,≤ -4.2
3,C69U G70C C93G C114A A150C,≤ -4.2
4,G68A A138G,≤ -4.2
5,C69A C85G A121C,-3.43
6,G68A U77A G81A U111A G126U,≤ -4.2
7,G70A C76A C79G A91U,≤ -4.2
8,G68A C69G G80A U104G,≤ -4.2
9,G71A C99U,≤ -4.2
10,G68C U78C C96A A98G G143A,≤ -4.2
11,G65A C85U A97U,-2.46
12,G71A C95U C132U,-4.11
13,A66G G133U U145A,≤ -4.2
14,G67U C76G G143A A150G,≤ -4.2
15,C69U G94A A122G U135A U146G,-2.95
16,C69A U104G,-3.09
17,G68A C87A A106C G117U,≤ -4.2
18,G65A A97G C99G,-3.75
19,G70U A119C,-2.09
20,C69G C85U U101G,-1.25
21,G70A G86A A89G C99A,≤ -4.2
22,C69U G94C,-1.65
23,G67U G74C C103U A121U A137C U144G,≤ -4.2
24,G68U A73U G94A A119U,≤ -4.2

row,Variant,polymerase ribozyme fitness (log ratio)
1,C69A C118G,-2.21
2,C69A C118U,-1.62
3,A66C A73C,≤ -4.2
4,A66U C87A A106U G143C,≤ -4.2
5,C69A A73C G84U U109C C118A,≤ -4.2
6,G67A G84U,≤ -4.2
7,C69A G140U,-3.21
8,C69A G71U,-0.808
9,G68A C75U C85G G136U U148A,≤ -4.2
10,A64U C96U C105G G141A A147G,≤ -4.2
11,G68A C72U,-4.15
12,G68C A122C,≤ -4.2
13,G68C C93G,≤ -4.2
14,G70C C76A C79U C87A,≤ -4.2
15,G68C U104G C105G C118U G133C,≤ -4.2
16,C69A G83C U101G,≤ -4.2
17,G68U C69A A113G G117A,≤ -4.2
18,G68U C85A A110G C132G A137G G141C U151G,≤ -4.2
19,G68A G92C,-4.16
20,A66G U90G C93G,≤ -4.2
21,C69U G136A A142U,-0.531
22,G70A C96U,-2.89
23,C69A C87A A106C G140A,≤ -4.2
